Patent US20210324028A1 (Pfizer, published 2021)
Where two headings read alike, the source gives them in different places. Each block holds one binder with its values, some of them ahead of it.

Legend:
[1] = biological target: T1, mouse PD-1 on doxycycline-induced 32D[pRF770+pRF791] cells (mouse, UniProt Q02242 25-288); experiment: cell-based or functional assay
T1 sequence (looked up): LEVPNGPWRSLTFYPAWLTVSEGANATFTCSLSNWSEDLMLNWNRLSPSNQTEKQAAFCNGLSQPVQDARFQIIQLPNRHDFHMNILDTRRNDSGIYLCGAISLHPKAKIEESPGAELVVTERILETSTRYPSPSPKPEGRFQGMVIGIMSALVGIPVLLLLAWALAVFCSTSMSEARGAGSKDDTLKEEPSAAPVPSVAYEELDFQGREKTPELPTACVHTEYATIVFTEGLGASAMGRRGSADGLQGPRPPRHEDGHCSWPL

[2] = biological target: T2, IL-15 signaling receptor on 32D[pRF770+pRF791] cells (human CD122 plus mouse CD132) (human; mouse, UniProt P14784 27-551; P34902 23-369); experiment: cell-based or functional assay
T2 sequence (looked up) 1: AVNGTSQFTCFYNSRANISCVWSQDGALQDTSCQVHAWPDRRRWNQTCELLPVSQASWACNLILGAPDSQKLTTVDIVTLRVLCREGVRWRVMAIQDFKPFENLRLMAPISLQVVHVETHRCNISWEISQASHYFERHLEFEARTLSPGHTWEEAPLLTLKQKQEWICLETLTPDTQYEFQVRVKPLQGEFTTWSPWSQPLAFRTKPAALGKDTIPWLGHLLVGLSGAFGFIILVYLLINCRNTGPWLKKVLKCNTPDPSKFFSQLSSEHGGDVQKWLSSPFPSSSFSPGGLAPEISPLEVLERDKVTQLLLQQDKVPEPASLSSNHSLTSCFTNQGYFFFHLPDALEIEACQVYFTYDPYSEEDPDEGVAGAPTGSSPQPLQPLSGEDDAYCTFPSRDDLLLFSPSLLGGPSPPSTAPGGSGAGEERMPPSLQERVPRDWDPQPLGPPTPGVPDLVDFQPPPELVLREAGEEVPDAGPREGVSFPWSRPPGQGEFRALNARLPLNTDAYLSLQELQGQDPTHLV
T2 sequence (looked up) 2: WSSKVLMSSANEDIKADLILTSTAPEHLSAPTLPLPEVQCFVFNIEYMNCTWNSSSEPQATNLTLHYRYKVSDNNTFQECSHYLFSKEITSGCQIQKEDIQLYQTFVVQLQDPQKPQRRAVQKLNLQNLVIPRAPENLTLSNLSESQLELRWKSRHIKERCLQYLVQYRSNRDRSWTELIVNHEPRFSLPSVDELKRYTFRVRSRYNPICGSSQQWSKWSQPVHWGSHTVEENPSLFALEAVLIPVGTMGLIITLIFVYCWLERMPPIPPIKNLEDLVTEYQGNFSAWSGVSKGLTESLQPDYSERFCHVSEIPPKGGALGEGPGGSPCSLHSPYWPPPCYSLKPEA

[3] = biological target: T1, mouse PD-1 on doxycycline-induced …; experiment: cell-based or functional assay; remark: listed apart in the source
[4] = biological target: T2, IL-15 signaling receptor on …; experiment: cell-based or functional assay; remark: listed apart in the source
[5] = biological target: T1, mouse PD-1 on doxycycline-induced …; experiment: cell-based or functional assay; remark: listed apart in the source
[6] = biological target: T2, IL-15 signaling receptor on …; experiment: cell-based or functional assay; remark: listed apart in the source
[7] = biological target: T1, mouse PD-1 on doxycycline-induced …; experiment: cell-based or functional assay; remark: listed apart in the source
[8] = biological target: T2, IL-15 signaling receptor on …; experiment: cell-based or functional assay; remark: listed apart in the source
[9] = biological target: T3, human IL-2Rβ (human, UniProt P14784 27-240, limits assumed); experiment: SPR, steady state, fusion captured
T3 construct: also called hIL-2Rβ; IL-2 receptor beta
T3 sequence (looked up): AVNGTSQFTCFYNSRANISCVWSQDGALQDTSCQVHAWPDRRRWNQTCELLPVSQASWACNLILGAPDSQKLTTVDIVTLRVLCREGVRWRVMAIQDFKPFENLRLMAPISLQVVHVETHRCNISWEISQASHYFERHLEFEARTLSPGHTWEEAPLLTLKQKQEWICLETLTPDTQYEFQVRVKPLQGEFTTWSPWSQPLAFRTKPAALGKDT
Outline: (§1)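 Anti-PD-1–hIL-15 fusions captured at 10 μg/mL on an anti-human Fc surface, receptor injected at 37 °C in HEPES-buffered saline with 0.05% Tween-20 and 1 mg/mL BSA, pH 7.4; 5 min dissociation.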

[10] = biological target: T4, human IL-15Rα (human, UniProt Q13261 31-205, limits assumed); experiment: SPR 37C, fusion captured by anti-human Fc
T4 construct: also called hIL-15Rα; IL-15 receptor alpha
T4 sequence (Q13261 31-205 limits assumed): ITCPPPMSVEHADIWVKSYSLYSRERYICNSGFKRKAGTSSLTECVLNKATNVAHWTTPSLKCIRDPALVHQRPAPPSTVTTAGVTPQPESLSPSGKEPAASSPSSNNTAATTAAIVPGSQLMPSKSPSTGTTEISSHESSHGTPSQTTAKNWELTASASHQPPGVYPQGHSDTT
Outline: as §1

[11] = biological target: T1, mouse PD-1 on doxycycline-induced …; experiment: flow cytometry, Alexa647-labelled protein on doxycycline-induced 32D[pRF770+pRF791] cells (mouse PD-1 together with CD122 plus CD132), 4 C 30 min, % A647-positive cells
Description: (§2) The following cell lines were suspended in growth medium to 0.7*10\hat{ }6 cells/mL and, cultured for 16 hrs: 1) untransduced 32D (parental line); 2) 32D[pRF770+pRF791]; and 3) 32D[pRF770+pRF791] grown in the presence of 1 ug/mL doxycycline, to induce PD-1 expression. Cultures were then resuspended to a final concentration of 1.0*10\hat{ }6 cells/mL, and 0.1 mL of each suspension was plated into separate wells of a 96-well round-bottom plate, of sufficient number required for the experiment. Each Alexa647-labeled antibody or antibody-cytokine chimeric proteins were then added to a unique well to obtain a final concentration of 500 nM, 100 nM, […], 1 nM, 0.1 nM, 0.01 nM, or 0.001 nM in a given well. Plates were incubated at 4° C. for 30′, and then the cells were pelleted by centrifugation (300×g, 5′) and resuspended in 0.2 mL of PBS. This wash step was repeated twice. Upon final resuspension, the cells were analyzed on an LSRII flow cytometer. Data were analyzed using FlowJo version 10.

[12] = biological target: T1, mouse PD-1 on doxycycline-induced …; experiment: flow cytometry, Alexa647-labelled protein on doxycycline-induced 32D[pRF770+pRF791] cells, 4 C 30 min, % A647-positive cells
Description: as §2

[13] = biological target: T2, IL-15 signaling receptor on …; experiment: flow cytometry, Alexa647-labelled protein on uninduced 32D[pRF770+pRF791] cells (human CD122 plus mouse CD132), 4 C 30 min, % A647-positive cells
Description: as §2

- Fold change = EC50 (PD-1(low))/EC50 (PD-1+) [1]: 223 fold
- pSTAT5 EC50 on PD-1+ 32D reporter cells [1]: 0.09 nM
- pSTAT5 EC50 on PD-1(low) 32D reporter cells [2]: 21.1 nM
- Fold change = EC50 (PD-1(low))/EC50 (PD-1+) [3]: 300 fold
- pSTAT5 EC50 on PD-1+ 32D reporter cells [3]: 0.00574 nM
- pSTAT5 EC50 on PD-1(low) 32D reporter cells [4]: 1.72 nM
- Fold change = EC50 (PD-1(low))/EC50 (PD-1+) [5]: 241 fold
- pSTAT5 EC50 on PD-1+ 32D reporter cells [5]: 0.0303 nM
- pSTAT5 EC50 on PD-1(low) 32D reporter cells [6]: 7.29 nM
- Fold change = EC50 (PD-1(low))/EC50 (PD-1+) [7]: 1230 fold
- pSTAT5 EC50 on PD-1+ 32D reporter cells [7]: 0.0109 nM
- pSTAT5 EC50 on PD-1(low) 32D reporter cells [8]: 13.3 nM
- Kd [9]: 518 nM
- binding result [10]: no binding (tested: 3000 nM)
- EC50 (read off the curve) [11]: ~0.03 nM
B1: xmPD-1-hIL15 NQ mutant (other)
heavy 1: HHHHHHHHGGGGSGSGGEVQLVESGGGLVKPGGSLELSCAASGFTFSSYWMSWVRQAPEKGLEWVAAISPSGGSTYYADSVKGRFTISRDNAKNTLFLQMTSLRSEDTAMYYCAKESWGAYYDLWGQGTTVTVSSASTKGPSVFPLAPCSRSTSESTAALGCLVKDYFPEPVTVSWNSGALTSGVHTFPAVLQSSGLYSLSSVVTVPSSNFGTQTYTCNVDHKPSNTKVDKTVERKCRVRCPRCPAPPVAGPSVFLFPPKPKDTLMISRTPEVTCVVVAVSHEDPEVQFNWYVDGVEVHNAKTKPREEQFNSTFRVVSVLTVVHQDWLNGKEYKCKVSNKGLPSSIEKTISKTKGQPREPQVYTLPPSREEMTKNQVSLTCLVKGFYPSDIAVEWESNGQPENNYKTTPPMLDSDGSFFLYSRLTVDKSRWQQGNVFSCSVMHEALHNHYTQKSLSLSPGK
heavy 2: EVQLVESGGGLVKPGGSLELSCAASGFTFSSYWMSWVRQAPEKGLEWVAAISPSGGSTYYADSVKGRFTISRDNAKNTLFLQMTSLRSEDTAMYYCAKESWGAYYDLWGQGTTVTVSSASTKGPSVFPLAPCSRSTSESTAALGCLVKDYFPEPVTVSWNSGALTSGVHTFPAVLQSSGLYSLSSVVTVPSSNFGTQTYTCNVDHKPSNTKVDKTVERKCEVECPECPAPPVAGPSVFLFPPKPKDTLMISRTPEVTCVVVAVSHEDPEVQFNWYVDGVEVHNAKTKPREEQFNSTFRVVSVLTVVHQDWLNGKEYKCKVSNKGLPSSIEKTISKTKGQPREPQVYTLPPSREEMTKNQVSLTCEVKGFYPSDIAVEWESNGQPENNYKTTPPMLDSDGSFFLYSKLTVDKSRWQQGNVFSCSVMHEALHNHYTQKSLSLSPGSGGGGGTATATPGANWVNVISDLKKIEDLIQSMHINATLFTESDVHPSCKVTAMKCFLLQLQVISLQSGDASIHDTVENLIILANNSLSSNGNVTESGCKECQELEQKNIKEFLQSFVHIVQMFINT
light: DIVMTQSPSSLSVSAGDKVTMSCRASQGISSWLAWYQQKPWQPPKLLIYKASTLESGVPDRFTGSGSGTDFTLTISSVQAEDLAVYYCQQSYSTPWTFGGGTKLEIKGTVAAPSVFIFPPSDEQLKSGTASVVCLLNNFYPREAKVQWKVDNALQSGNSQESVTEQDSKDSTYSLSSTLTLSKADYEKHKVYACEVTHQGLSSPVTKSFNRGEC
notes: also called xmPD-1-IL15 NQ; xmPD1-IL15 NQ

- EC50 (read off the curve) [12]: ~0.03 nM
- binding result [13]: no binding (tested: 500 nM)
B2: xmPD-1 (antibody, human IgG2, kappa, V domains shown)
VH: EVQLVESGGGLVKPGGSLELSCAASGFTFSSYWMSWVRQAPEKGLEWVAAISPSGGSTYYADSVKGRFTISRDNAKNTLFLQMTSLRSEDTAMYYCAKESWGAYYDLWGQGTTVTVSS
VL: DIVMTQSPSSLSVSAGDKVTMSCRASQGISSWLAWYQQKPWQPPKLLIYKASTLESGVPDRFTGSGSGTDFTLTISSVQAEDLAVYYCQQSYSTPWTFGGGTKLEIKG
notes: human IgG2dA constant regions; also called anti-mouse PD-1 antibody; clone F12.3
